The record followed here is publication PMC6954417, “DSS1 interacts with and stimulates RAD52 to promote the repair of DSBs” (Nucleic Acids Research, 2019).

The term stoichiometry N denotes a count of units in the complex or per binding partner.

The assay concerns the target T1, GST-DSS1 (human, UniProt P60896 1-70).
T1 construct: DSS1, human; expressed from pGEX-KG; NMR numbering runs from M1 to three residues after M67; also called recombinant GST-DSS1 protein; source: E. coli BL21 (DE3), purified (Glutathione 4B-Sepharose, MonoQ); not shown: GST, N-terminal, kept
Kind of assay: pull-down; quantitative: GST-DSS1 4 uM on GST beads, increasing His6-RAD52, 20 mM Tris-acetate pH 7.5, 100 mM KCl, 0.01% NP40, 1 mM DTT, 1 h, 4°C; band intensities normalised to 6 uM His6-RAD52. The conditions noted are these: both partners purified.

T1 sequence (P60896 whole entry): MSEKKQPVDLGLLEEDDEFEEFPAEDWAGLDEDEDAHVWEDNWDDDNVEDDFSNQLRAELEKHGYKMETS

B1: His6-RAD52 (natural protein, human, UniProt P43351 1-418, looked up)
chain: MSGTEEAILGGRDSHPAAGGGSVLCFGQCQYTAEEYQAIQKALRQRLGPEYISSRMAGGGQKVCYIEGHRVINLANEMFGYNGWAHSITQQNVDFVDLNNGKFYVGVCAFVRVQLKDGSYHEDVGYGVSEGLKSKALSLEKARKEAVTDGLKRALRSFGNALGNCILDKDYLRSLNKLPRQLPLEVDLTKAKRQDLEPSVEEARYNSCRPNMALGHPQLQQVTSPSRPSHAVIPADQDCSSRSLSSSAVESEATHQRKLRQKQLQQQFRERMEKQQVRVSTPSAEKSEAAPPAPPVTHSTPVTVSEPLLEKDFLAGVTQELIKTLEDNSEKWAVTPDAGDGVVKPSSRADPAQTSDTLALNNQMVTQNRTPHSVCHQKPQAKSGSWDLQTYSADQRTTGNWESHRKSQDMKKRKYDPS
notes: RAD52, human, with His6 tag; not shown: His6, N-terminal, kept
Turning to B1, the “stoichiometry N” value was 1.
